Test: soluble fraction after stress (log2 fold change); higher = more stays soluble; pooled small domains, quantitative proteomics
Details: stress: pH 4
How it was run: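 Values are log2 fold changes, and higher ones mean more of the domain stayed soluble. Each fold change reflects the soluble amount of a domain after acid stress and is taken as a measure of aggregation propensity. The stress was pH 4, applied to pooled custom libraries of small protein domains analysed by high-throughput quantitative proteomics.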

## HMRMLSEGAQRMLRGLAVLEEASADRLLELHQGDYPGFVRSLFALESAGLFQRNGSGTWIRR
  soluble fraction (log2): -0.996

## HMRMNASERQNQIVDLLSQNGVMKIMDIADHFNVSRETIRRDLIILEDDNRIKKWFGGVISAN
  soluble fraction (log2): -0.219

## HMRMQRYYLTDMSEKGREALPGVLDEMGYAGRYTMSDNSIAINSNMIVLSKAIKRAEDIAHNE
  soluble fraction (log2): -0.148

## HMRMRPNERQKRIIELLSFRRHETIGNFANEFGVSRDTIKRDIITLQEEYPIISERGYEGGISLPDGYYI
  soluble fraction (log2): -0.0594

## HMRMSLDEAKAVVLPIGEYKGRNMGEVLAIKPELIDFYASQKFNSSKYPYLKEAAQVILENQ
  soluble fraction (log2): 0.0219

## HMRMSPRERKIYQFIENHPGTKSGEMAEKLGIPLPTIKRLLSDMVASKLLQKHGTGAGTNYSIEE
  soluble fraction (log2): ≥ 0.43

## HMRMSQLSRLISILTLLKSKRLLTATELAEKYDVSIRTVYRDIRKLEEAGIPVYTIEGRGYSLMDNYT
  soluble fraction (log2): -0.299

## HMRNANENTLKDLPVAVPNIHVSNIEEKKDFHLIQLEYSQEFDPREDLFNFAVNSSWVILKMTPT
  soluble fraction (log2): ≥ 0.43

## HMRNDIFDQLTEREMQILQEVAKGYRNKQIADHLFISESTVKVHMKSLLKKLQVPSRTAATVLYLERYG
  soluble fraction (log2): -0.406

## HMRNEFEAHSDGTRIQLNDRSKATFSVYDVQGRLIHSFQDFSGSSFNIEPKNQLLIITRETAEGVSVKKLV
  soluble fraction (log2): -0.322

## HMRNKTVKEVLDYIEKNSEFIFFYYSKAIDTKRIVSLSVKDQPITVILDQLFKNTDVLYEIKDRQISLKRE
  soluble fraction (log2): -0.508

## HMRNTETMKEIQAFVEDYFFEYHQSPSMQKVADAIGTSKSTAYYYVMEMARNGMLHYDGKTIETPHTQKS
  soluble fraction (log2): 0.285

## HMRPDDPYLVIGASREMGDEELKRHYRRLVAETHPDRGIARGLPAEAIAIATRRLAAINAAWDAIERERGL
  soluble fraction (log2): -0.158

## HMRPDSFEAGEAEAGSRLDRLLAARLGIPRNQVQQWIGGGRVTVDAEPVRASLVVRAGMRIAWDPPPPP
  soluble fraction (log2): 0.0905

## HMRPEKLVLKALRGAHGPLSAEEVAGRIEADGGAGLDVARVEHVLGQLERSGTVAALGGGKYLALR
  soluble fraction (log2): 0.123

## HMRPHDDHLREQLLGIATETIARTGVEGLSLRTLATDAGTSTSAVYQLFGSRAALLDAVYLRVLE
  soluble fraction (log2): -0.733

## HMRPLISQTLRIDRGEGDIAGPLGVLAKEYPHLSMGSYPFQKDGIYGAHVVIRGSDPGMVEAAMDKLKAAF
  soluble fraction (log2): -0.0188

## HMRPLTPLEKLTPDADGKYYHIVQSGETLSWIAKLYETTAEKLQAWNNLFSSDIFPNQKLLLQVTPP
  soluble fraction (log2): -0.123

## HMRPPLEWGTHGEITTRTVASGYVRASARVRLWDGELQRMTATASTASDARASLQHRIAERLRFSEL
  soluble fraction (log2): -0.0592

## HMRPPLRAAIIDHLARDWHTVAELARLLPASGAHVSRLVVELRAVGAVDERISHPDWPGNRPTEYRLRRA
  soluble fraction (log2): -1.05

## HMRPTHYSGPSVIAMINNRVWFSDGSRLAPGEHHDDLEVVGLSPPWSAKVRWQGVEFDVGLFE
  soluble fraction (log2): -0.946

## HMRQGHLDLLRQIHALPPSTREVVYLRAFGGLSFREIGDVLGRTETWARVTFYRGKEALRKG
  soluble fraction (log2): -0.275

## HMRQHHMIISTKLGTPKEELAKLVSGFEDQGLRVSVITGTDYTVIGLVGDTTHLDEKRIRANPYVDNVQRV
  soluble fraction (log2): 0.0502

## HMRQIMIIVLKSTATKEDSLLFKNKLEQEYGVKVNEWTGVESTVLGLIGDTTKIDIDYISAQDIVESVKRV
  soluble fraction (log2): -0.494

## HMRQKTTFFATESFELPNGEKVEEGQIFRLNDGAFNIAEQQGITRFLTSEANYGRMIAANAEVEKAKLDA
  soluble fraction (log2): -1.05

## HMRQLISIYNNTIGADEIDQMRNILSNSGYKEGVDFAVQTADKKSVILVRRDLAGMIQEQLSGEGLPS
  soluble fraction (log2): -0.18

## HMRQNPESFLNHKVKKNESLESLTKKYELTENEIIFYNPLIQKIGLKKRMILKIPIYNNQNLVTKSVD
  soluble fraction (log2): -0.161

## HMRQPRGQRVTVREASSLLPFLFAHLTDRSRSAVKSLLRHGQIWVNGRVTTHFDMPLRPGDTVLISHERG
  soluble fraction (log2): -0.233

## HMRQSQEVSGGERYRRLTAYLDTHPFITRKEYSGITGLLKNKALNDLNLLVNKGYLEAMGRGSHKVYVRPM
  soluble fraction (log2): 0.321

## HMRQSSLRTRELLIDAARQLFARFGVEKTTMNDIAEASKRGRRTVYMYFNSKSDVFYAVVGRE
  soluble fraction (log2): -0.116

## HMRQVFPNPSSSQIKLASSRIGQAFSILDQQGRVVLSGKVSEEAVIALENLAKGIYVLKIGSWSETILK
  soluble fraction (log2): 0.00122

## HMRRATLERLANNTAEKAIRYKRSLALEPMNPQERRIIHAALQEVEGVSTHSVGTEPNRKVIVVPDGV
  soluble fraction (log2): -0.186

## HMRRFEFSDGSSNKFWQITRDGTSLTVTFGKIGTAGQTQLKELATEAAAIAEHDKLVKEKTKKGYAEVG
  soluble fraction (log2): -0.157

## HMRRGFGYVRKLPSGRWQASFVGPDLARHSAPHTFETKGDAEGWLGRRQADVVAGEWRPPVP
  soluble fraction (log2): 0.321

## HMRRISLEDWQLIESLIRRDWSPEQISLWLKKYKKIRVSHEWIYQYILKDKSKAGDLHTHLRSR
  soluble fraction (log2): -0.419

## HMRRKNQVQSSYQKRENGTYTVRFFLSDDMGSIMDLQLMATREDMARALRERFLKDPEKIYGQIMQMLLR
  soluble fraction (log2): 0.241

## HMRRLGTTEIAGILRREISQGILIAKERLPSERSLADTYGVARGTVRQALNLLAREGLVQIRRSSGAYVTF
  soluble fraction (log2): -0.299

## HMRRMAYLVGQRGLAMGDFISGTGQVRIGDTVWRAEAVEGELVRTGDTVVVEGAKMTTAIVRRVM
  soluble fraction (log2): -0.302

## HMRRRKPLVSYEYGTRVYAPSEGEPRYRVVATDADGQRVFAKFSSEEAARHRAREIEGRLATS
  soluble fraction (log2): 0.0937

## HMRRSSQQLTLTEVSTIKEMVTSEEYRHVPTGTLALLAQRLRKVFASSSTWYRLVRIYKWRRPRGRIH
  soluble fraction (log2): 0.296

## HMRRSVYQANVLDAIKHLVDQNELATTKAIAEYIGDDYQGNVSRAIRELLADRKIKKLPKVGVLQPYEA
  soluble fraction (log2): 0.127

## HMRRVEDVRTALEHFAAARNTTPMAMTLDQRREAMRELAASGLLNLRRALSEVAQTLGVARSTVYTYLP
  soluble fraction (log2): ≥ 0.43

## HMRSAKEYKAIREEIYRFIGAYITKHVYAPSNKEIAEAVGISGTTVHRHLIDMIDEGILETD
  soluble fraction (log2): -1.29

## HMRSFGTLRRLPSGRYQASYAGPDLRRHAAPTTFETKLDAEGWLRDEHRMIERDEWTAPAARSQLK
  soluble fraction (log2): 0.0606

## HMRSFRIGGLVEQGSIARDGQSLTVRFAVTDLAHKIPVTYTGLLPDLFKEGKGVVAEGKLGPDGVFHASQV
  soluble fraction (log2): -0.705

## HMRSPIWKSITATLTAEIAGGQYRAGDKLPTEAELSQRFGVNRHTLRRALAEMAGAGLVVARRGAGVFVQG
  soluble fraction (log2): -0.289

## HMRSPLYVQIKQHILGDIRKGVWKPGEKLPTELDLAERFGVSVGTVRRAMGGLEDEGIISRREGSGTFVRT
  soluble fraction (log2): 0.229

## HMRSSAATMFGRIALKNKLVDEATLKKVMSELPAGADLGAVLVKQGLISEQHAEAIQKKITAHMKSAP
  soluble fraction (log2): 0.0511

## HMRSSALDEIPGIGKQRKKNLLVHFTSVAKIKEASLDEIAAVPGMNRKAALVVVEFFQNQERE
  soluble fraction (log2): 0.158

## HMRSSNEAVSQRRDKILDYISATGRTSTEIVAKEFGVSVMTARRDLLYLMEKRLISKSSSGLFKVDNN
  soluble fraction (log2): 0.408

## HMRTIGDSVYEKIKYDIVHLTLKPGEKLSEASLAEKYGISKAPIRVALRKLQEEGLIVIRPQSGSIVSP
  soluble fraction (log2): 0.0262

## HMRTMRHLSVPRQETQQILSQLKAEFALPQGARVQPDPSDSKRTLIPVKEGAESELLSRYPVVHAEP
  soluble fraction (log2): 0.11

## HMRTNNEITSYKLKSGKKRWKFQTYLGLDDKGQKVSVTRQGFRTYNEAISEYNKLRAQGTQGYQ
  soluble fraction (log2): ≥ 0.43

## HMRTPTGVQAYLSSGLIKGIGEKTAAAIVDKFGTDALSVIETDPERLLEIPGITPNKLREILESYNQH
  soluble fraction (log2): 0.174

## HMRTVAERYGLTAGQWRVLELLTQGKTNRQIAEMLDVTEGTVKIHVSAIFKAMKVTNRTQALLLAKKH
  soluble fraction (log2): -0.522

## HMRTYDPQAVELNNKALELINQGRLDSALLVYDQSIKTDKTYYFPHIGKSIIYMRKKDWNKAFEETQQAIK
  soluble fraction (log2): 0.0261

## HMRVDLATEVHSVLRRMMSRPPTLQEIRADLDGEEPGRVHEALDALRAAFRGGRGPKNPYESLKRSLRRG
  soluble fraction (log2): -0.126

## HMRVDLVQRLARHGLSPRQSAVAGGVLRGLDNGEISRQLYIAEQTVKDHLHEIYHRLGVHTRTELLIKVLG
  soluble fraction (log2): -0.359

## HMRVGISRNSGAAGIAVWLTQKLGRPVAKTEEIVHILKNWVDDQYEAGRVTNIGDGELWSVYKQMEAEE
  soluble fraction (log2): 0.0584

## HMRVTEIDYGAFMKMIEEKNIGEVKVEDYEIVFTDKDNKNIYKTGIMDDPDLTQRLYNSGAVFA
  soluble fraction (log2): -1.22

## HMRWGDPLTVKVPSFIGQTKDDIAKQHYPFRIEWHGEGAKIGSQLPEVDSVIKQDGTIHLYLV
  soluble fraction (log2): -0.0995

## HMRYFDDEELNNKFLEFLSMRKKIRKPVRTDRALKALLKKLHELSGGDVGLMKQIIDQSLDKEWLGLFEL
  soluble fraction (log2): -0.6

## HMRYNPETTAGRRGLIIKMLDEYGQVNVNELSRYFNVSEVTVRNDLAYLERKNLLIRARGGAIKTE
  soluble fraction (log2): 0.0289

## HMRYWVKSETDFLIENRGKYSYQEFADMLGRSYAVVYDKMHQLKIDYTKEELEIFDEKHKAQMREKQQR
  soluble fraction (log2): -0.665

## HMSAAPVGPWALSEFLDAVEKDSVERVTFDDAGKALVAVDADGGRHRVEILPSEGPEILAALRKHSVQFA
  soluble fraction (log2): -0.346

## HMSADEVSQQLTSEQTKSKSYQALLQAYAAYQQKSFDDAALELQNVQQDVLSDSQKTIYNTISQAVNS
  soluble fraction (log2): -0.0227

## HMSADISIGYNIPKGSVTVSAGGRTLQEGIDYDINYDLGTIKITNQAILNAGLPVQVNFENNAS
  soluble fraction (log2): -0.212

## HMSADLVYLRKRLQDAIAQLPENMRTAYTLFQIANRSIREISELTGASESLVKVRIHRAKGKLQKQLEDLK
  soluble fraction (log2): -0.5

## HMSAEDYLERIHELIESKGTAHVADIAQSLGVGKPSVTSMVQKLADEGYLNYEKYRSLTLTDSGRSIA
  soluble fraction (log2): 0.0599

## HMSAEDYMEMIYRLSQENGFTRVNDLASALNVQPPSVTRMIQKLAELNLIKYEKYGVIMLQPYGIEVGRSL
  soluble fraction (log2): -1.47

## HMSAEGPALADWVVRDAHSIGAKITNSVAQLLIDRVGHNQQLLHNELQKLALVQTDISAELVKTMSHY
  soluble fraction (log2): -0.0595

## HMSAETRSWTDAQGNQTQAVLRGFDGGDVLLQNAAGKTLRVPVKNLSEDDQRYVVLNISTLID
  soluble fraction (log2): -0.594

## HMSAITLDQARAIALDHAGISEGDATFVKEQTGTSSYEIEFYSGSNEYDYEIDKATGAILNVDR
  soluble fraction (log2): 0.22

## HMSALAEELIKKNQAMILTIKPRDTIWGIANRFQSPPSEKFINQIIELNQVDPYRLRIGQDLLIPLN
  soluble fraction (log2): 0.00792

## HMSALTDQQQRVLELVASGLVYKEVAAALSISEPTVKYHMGNILTRLHVKNRAQAIAAARQQGLL
  soluble fraction (log2): -0.26

Reference: the domain aggregation screens of Martell et al. (2025)
